Results on two substances are retold here after patent US20100086943.

The test system of this data set is fusion protein comprising the c-myc tag, a generic substrate recognized by the serine/threonine kinases and the FLAG tag, expressed from the pSEMS plasmid (Snaptag).

Consider “Cam kinase II (expressed from CamKII delta-pcDNA 3.1)”, for which the “phosphorylation of the substrate measured by TR-FRET after activation by ionomycin” value is recorded as “in the presence of ionomycin, the signal measured is much greater than in its absence”.
With “kinase Akt1 (expressed from Akt1-pcDNA 3.1)”, the “phosphorylation of the substrate measured by TR-FRET (delta F)” value was “The co-transfection with the plasmid coding for the protein substrate and the plasmid coding for the kinase Akt1 makes it possible to increase the quantity of protein substrate phosphorylated specifically by Akt1”.
